Source: publication PMC7409020 (2020)
Square brackets hold non-standard residues; d marks the D form. Ends that are not written are not given here.

B1: A-[Ala^6]CooP (peptide)
peptide: ACGLSGAGVA-NH2
B2: RI-A-CooP (peptide)
peptide: [dA][dV]G[dL]G[dS][dL]G[dC][dA]-NH2
modifications: N-terminus assumed
SMILES: CC(C)C[C@@H](NC(=O)CNC(=O)[C@H](NC(=O)[C@@H](C)N)C(C)C)C(=O)NCC(=O)N[C@H](CO)C(=O)N[C@H](CC(C)C)C(=O)NCC(=O)N[C@H](CS)C(=O)N[C@H](C)C(N)=O
B3: A-[Ala^4]CooP (peptide)
peptide: ACGLAGLGVA-NH2
B4: A-[Ala^8]CooP (peptide)
peptide: ACGLSGLGAA-NH2
B5: A-[Ala^2]CooP (peptide)
peptide: ACALSGLGVA-NH2
B6: A-[Ala^3]CooP (peptide)
peptide: ACGASGLGVA-NH2

molecular target: recombinant N-terminal His6-tagged human FABP3 (human, NT-650-NHS red amine-reactive fluorescent dye (in the MST experiments only)); experiment: MST
Sequence (P05413 whole entry): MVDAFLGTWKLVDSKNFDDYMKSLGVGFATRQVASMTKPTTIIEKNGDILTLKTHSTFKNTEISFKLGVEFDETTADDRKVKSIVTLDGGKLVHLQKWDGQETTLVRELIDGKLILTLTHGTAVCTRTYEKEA

Binder	Kd
B1	190 nM
B2	24000 nM
B3	110 nM
B4	120 nM
B5	90 nM
B6	250 nM
